Reference: patent publication US20110190477A1 (G2 INFLAMMATION, published 2011)
Substitutions are numbered along the chain they refer to. Several values for one entry are separate records, joined by “and”; a condition that tells them apart may be missing. Identical values can stand only once.

Legend:
[1] = target: T1, human C5a receptor (human, UniProt P21730 1-350); test: 125I-C5a displacement, human neutrophils
T1 construct: On human neutrophils, L1.2/hC5aR transfectants or neutrophils of hC5aR knock-in mice; also called hC5aR; C5aR1
T1 chain: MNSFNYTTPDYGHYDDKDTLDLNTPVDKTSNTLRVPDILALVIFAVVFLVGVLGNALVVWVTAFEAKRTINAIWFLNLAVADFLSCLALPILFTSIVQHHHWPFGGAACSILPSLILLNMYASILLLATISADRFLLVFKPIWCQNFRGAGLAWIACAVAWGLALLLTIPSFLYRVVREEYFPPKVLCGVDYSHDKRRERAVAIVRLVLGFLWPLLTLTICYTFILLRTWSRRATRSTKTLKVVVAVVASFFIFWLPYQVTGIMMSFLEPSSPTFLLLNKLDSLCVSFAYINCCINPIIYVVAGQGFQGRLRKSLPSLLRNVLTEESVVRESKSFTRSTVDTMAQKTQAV
Procedure: (§1) The ability of humanized Abs to inhibit ¹²⁵I-labelled C5a binding to L1.2 cells transfected with hC5aR gene or human neutrophils was tested as described below. Recombinant human C5a was obtained from Sigma Chemical Co. (St. Louis, Mo.). ¹²⁵I-Bolton-Hunter-labelled complement C5a was purchased from NEN-Dupont (Boston, Mass.), with a specific activity of 2200 Ci/mM. Briefly, L1.2/hC5aR stable transfectants were grown for several days prior to an experiment then treated overnight with 5 mM butyric acid to stimulate hC5aR expression prior to the binding assay. Human neutrophils were purified from venous blood collected from healthy volunteers. Neutrophils were separated from other leukocytes by percoll density centrifugation followed by a red blood cell lysis step. Both cell types were washed once in PBS and resuspended in binding buffer (50 mM Hepes, pH 7.5, 1 mM CaCl₂, 5 mM MgCl₂, 0.5% BSA) at a concentration of 1×10⁷/ml. Aliquots of 40 μl (4×10⁵ cells) were dispensed into 96 well microtitre plates, followed by the addition of cold competitor (antibody or human C5a). Cells and cold competitor were incubated for 15 min at room temperature before-radiolabelled C5a was added to a final concentration of 0.4 nM. The final reaction volume was 120 μl. After 60 min incubation at room temperature, the cells were washed three times with 150 μl of binding buffer containing 0.15 M NaCl. Cell pellets were then counted on a TopCount Scintillation Counter (Packard). Samples were assayed in triplicate at each of 6-8 concentrations. Each antibody was tested in at least 3 separate assays. The number of counts in each sample was expressed as a percentage of the maximum ¹²⁵I-C5a binding observed in wells with no added cold competitor after subtraction of background.
(§2) Results of this analysis (the displacement curves) for each of the humanized antibodies compared to the mouse antibody 7F3 in human neutrophils and L1.2/hC5aR transfectants are given in FIGS. 11 and 12 respectively. […] These values were obtained using Graphpad Prism software fitting the data to the non-linear equation for one site competition.

[2] = target: T1, human C5a receptor; test: 125I-C5a displacement by cold C5a, human neutrophils
[3] = target: T1, human C5a receptor; test: 125I-C5a displacement, L1.2/hC5aR transfectants
Procedure: as §1, §2

[4] = target: T1, human C5a receptor; test: cell-based or functional assay
[5] = target: T1, human C5a receptor; test: cell-based or functional assay
[6] = target: T1, human C5a receptor; test: saturation binding to human neutrophils at 4 C, flow cytometry
Procedure: Human neutrophils, isolated as described above, were resuspended in dPBS and 1×10⁵ cells (in 25 μl) were dispensed into wells of a 96-well plate. An equal volume (25 μl) of 2× antibody (diluted in PBS) was added to each well. The final antibody concentration using 2-fold serial dilution ranged from 40 to 0 ug/ml (using unlabelled hAb-Q, hAb-J and 7F3). Cells and antibody were incubated for 20 min times at 4° C. After incubation, 100 μl PBS+1% BCS was added to each well and the plate centrifuged at 2,000 rpm for 3 min. […] The cells were washed once as above and resuspended in PBS+1% FCS for analysis by flow cytometry. FSC v SSC scatter was used to identify neutrophils, with the Median Fluorescence Intensity (MFI) determined for each sample. EC50 values were determined by fitting data (MFI—background vs log₁₀[antibody concentration]) to the sigmoidal dose-response (variable slope) i.e. 4-parameter logistic equation using GraphPad Prism (v4.0) software. Bₘₐₓ and KD were determined by fitting data to the one-site binding hyperbola equation.

B1: humanized anti-C5aR antibody hAb-S (antibody, human IgG4 S228P, kappa)
light: DVVMTQSPLSLPVTLGEPASISCRSSQSLVHSNGNTYLHWYLQKPGQSPQLLIYKVSNRFSGVPDRFSGSGSGTDFTLKISRVEAEDVGVYFCSQSTLVPLTFGQGTKLEIKRTVAAPSVFIFPPSDEQLKSGTASVVCLLNNFYPREAKVQWKVDNALQSGNSQESVTEQDSKDSTYSLSSTLTLSKADYEKHKVYACEVTHQGLSSPVTKSFNRGEC
heavy: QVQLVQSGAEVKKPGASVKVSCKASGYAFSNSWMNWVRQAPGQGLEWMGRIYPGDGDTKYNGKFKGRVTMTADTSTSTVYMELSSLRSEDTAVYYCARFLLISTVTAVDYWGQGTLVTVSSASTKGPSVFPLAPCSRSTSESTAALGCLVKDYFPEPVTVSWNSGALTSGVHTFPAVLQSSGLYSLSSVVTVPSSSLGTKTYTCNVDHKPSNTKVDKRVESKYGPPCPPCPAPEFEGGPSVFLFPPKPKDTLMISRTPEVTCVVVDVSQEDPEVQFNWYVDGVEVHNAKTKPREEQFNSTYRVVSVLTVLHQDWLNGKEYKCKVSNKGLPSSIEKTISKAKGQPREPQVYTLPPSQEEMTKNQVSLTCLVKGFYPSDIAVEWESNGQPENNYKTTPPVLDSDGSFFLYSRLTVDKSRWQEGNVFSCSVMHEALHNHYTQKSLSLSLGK
notes: also called antibody S
EC50 [1]: 2.69 nM

B2: human C5a (ligand, UniProt P01031 678-751, looked up)
chain: TLQKKIEEIAAKYKHSVVKKCCYDGACVNNDETCEQRAARISLGPRCIKAFTECCVVASQLRANISHKDMQLGR
modifications: tracer form: 125I-Bolton-Hunter label
notes: C5a is a fragment of it; also called hC5a; recombinant human C5a
EC50 [2]: 0.5 nM

B3: humanized anti-C5aR antibody hAb-A (antibody, human IgG4, kappa, V domains shown)
VH: QVQLVQSGAEVKKPGASVKISCKASGYAFSNSWMNWVRQAPGKGLEWMGRIYPGDGDTKYNGKFKGRVTITADESTSTAYMELSSLRSEDSAVYFCARFLLISTVTAVDYWGQGTTVTVSS
VL: DVVMTQSPLSLPVTLGEPASISCRSSQSLVHSNGNTYLHWYLQKPGQSPQLLIYKVSNRFSGVPDRFSGSGSGTDFTLKISRVEAEDVGVYFCSQSTLVPLTFGQGTKLEIKT
notes: also called antibody A
EC50 [3]: 2.78 nM

B4: humanized anti-C5aR antibody hAb-K (antibody, human IgG4 S228P, kappa, V domains shown)
VH: B3 VH with I20V, K43Q, I70M, E74T, A79V, S91T, F95Y, T116L
VL: B3 VL with S7T, E17Q, Y41C, F92Y
blocking of human neutrophil migration towards C5a at 5 µg/ml antibody [4]: 55%

B5: humanized anti-C5aR antibody hAb-C (antibody, human IgG4, kappa)
light: DVVMTQSPLSLPVTLGQPASISCRSSQSLVHSNGNTYLHWFQQRPGQSPRLLIYKVSNRFSGVPDRFSGSGSGTDFTLKISRVEAEDVGVYYCSQSTLVPLTFGGGTKLEIKTVAAPSVFIFPPSDEQLKSGTASVVCLLNNFYPREAKVQWKVDNALQSGNSQESVTEQDSKDSTYSLSSTLTLSKADYEKHKVYACEVTHQGLSSPVTKSFNRGEC
heavy: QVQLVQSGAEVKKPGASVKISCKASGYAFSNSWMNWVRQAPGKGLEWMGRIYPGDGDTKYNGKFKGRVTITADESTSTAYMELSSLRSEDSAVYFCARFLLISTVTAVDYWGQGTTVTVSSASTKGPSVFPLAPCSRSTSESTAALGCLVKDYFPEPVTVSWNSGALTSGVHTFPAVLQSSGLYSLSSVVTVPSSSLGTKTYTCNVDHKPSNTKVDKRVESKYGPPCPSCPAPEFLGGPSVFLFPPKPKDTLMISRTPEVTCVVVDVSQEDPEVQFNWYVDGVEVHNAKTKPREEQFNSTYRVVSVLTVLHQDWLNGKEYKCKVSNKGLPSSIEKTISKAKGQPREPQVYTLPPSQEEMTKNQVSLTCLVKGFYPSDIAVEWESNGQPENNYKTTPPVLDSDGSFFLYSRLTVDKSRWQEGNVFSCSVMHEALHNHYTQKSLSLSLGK
notes: also called antibody C
blocking of human neutrophil migration towards C5a at 5 µg/ml antibody [4]: 75%
EC50 [1]: 2.48 nM
EC50 [3]: 0.9 nM

B6: humanized anti-C5aR antibody hAb-F (antibody, human IgG4 S228P, kappa)
light: B5 light
heavy: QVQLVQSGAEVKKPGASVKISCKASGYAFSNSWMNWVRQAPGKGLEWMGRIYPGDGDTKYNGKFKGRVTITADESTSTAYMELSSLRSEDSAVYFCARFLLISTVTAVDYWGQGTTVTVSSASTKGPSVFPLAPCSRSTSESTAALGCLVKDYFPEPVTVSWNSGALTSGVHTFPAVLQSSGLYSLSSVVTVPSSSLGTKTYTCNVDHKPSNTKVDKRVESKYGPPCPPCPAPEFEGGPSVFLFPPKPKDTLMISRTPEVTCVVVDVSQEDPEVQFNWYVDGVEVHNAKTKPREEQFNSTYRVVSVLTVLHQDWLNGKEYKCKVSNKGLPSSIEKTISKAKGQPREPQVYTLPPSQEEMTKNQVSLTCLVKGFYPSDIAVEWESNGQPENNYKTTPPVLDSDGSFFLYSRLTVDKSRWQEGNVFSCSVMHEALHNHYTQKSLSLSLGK
notes: also called antibody F
Ab conc. tested but not effective at blocking Ca2+-flux (human neutrophils, 1 nM C5a) [5]: 10 µg/mL
EC50 [1]: 2.55 nM
EC50 [3]: 1.26 nM

B7: humanized anti-C5aR antibody hAb-M (antibody, human IgG4, kappa)
light: B5 light with Q17E, F41Y, Q42L, R44K, R50Q, Y92F, G105Q
heavy: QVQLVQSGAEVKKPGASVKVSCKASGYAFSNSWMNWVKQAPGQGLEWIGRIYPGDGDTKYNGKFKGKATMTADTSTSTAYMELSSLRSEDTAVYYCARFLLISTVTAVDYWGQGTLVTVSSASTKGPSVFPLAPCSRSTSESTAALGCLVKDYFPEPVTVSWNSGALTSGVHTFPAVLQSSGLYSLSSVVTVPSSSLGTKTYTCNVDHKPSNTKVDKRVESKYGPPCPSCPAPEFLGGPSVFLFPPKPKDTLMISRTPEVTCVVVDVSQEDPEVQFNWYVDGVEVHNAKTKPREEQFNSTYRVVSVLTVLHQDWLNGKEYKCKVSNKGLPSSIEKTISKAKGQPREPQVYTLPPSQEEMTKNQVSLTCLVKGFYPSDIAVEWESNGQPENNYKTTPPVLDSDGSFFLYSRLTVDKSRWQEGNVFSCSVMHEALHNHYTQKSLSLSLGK
notes: also called antibody M
Ab conc. effective at blocking C5a-induced Ca2+-flux (human neutrophils, 1 nM C5a) [5]: 30 µg/mL
EC50 [1]: 4.05 nM
EC50 [3]: 0.95 nM

B8: humanized anti-C5aR antibody hAb-G (antibody, human IgG4 S228P, kappa)
light: B5 light with Q17E, F41Y, Q42L, R44K, R50Q, Y92F, G105Q
heavy: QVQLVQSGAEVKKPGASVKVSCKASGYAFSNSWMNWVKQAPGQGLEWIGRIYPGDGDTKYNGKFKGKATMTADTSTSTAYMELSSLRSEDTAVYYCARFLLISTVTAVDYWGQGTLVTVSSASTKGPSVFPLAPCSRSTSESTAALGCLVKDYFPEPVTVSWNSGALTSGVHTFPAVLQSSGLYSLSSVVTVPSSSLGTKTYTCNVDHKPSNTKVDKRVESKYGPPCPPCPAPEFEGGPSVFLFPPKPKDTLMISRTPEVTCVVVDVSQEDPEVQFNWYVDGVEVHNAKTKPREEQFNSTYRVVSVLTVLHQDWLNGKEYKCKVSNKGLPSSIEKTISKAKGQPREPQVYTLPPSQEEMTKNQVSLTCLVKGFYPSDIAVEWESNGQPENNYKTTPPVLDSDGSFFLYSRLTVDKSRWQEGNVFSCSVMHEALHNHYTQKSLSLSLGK
notes: also called antibody G
blocking of human neutrophil migration towards C5a at 5 µg/ml antibody [4]: 84%
Ab conc. effective at blocking C5a-induced Ca2+-flux (human neutrophils, 1 nM C5a) [5]: 30 µg/mL
EC50 [1]: 3.52 nM
EC50 [3]: 1.53 nM

B9: humanized anti-C5aR antibody hAb-O (antibody, human IgG1, kappa)
light: B5 light
heavy: not shown
notes: IgG1; also called antibody O
Ab conc. effective at blocking C5a-induced Ca2+-flux (human neutrophils, 1 nM C5a) [5]: 10 µg/mL
EC50 [1]: 0.48 nM
EC50 [3]: 0.68 nM

B10: humanized anti-C5aR antibody hAb-N (antibody, human IgG1, kappa)
light: B5 light with Q17E, F41Y, Q42L, R44K, R50Q, Y92F, G105Q
heavy: not shown
notes: IgG1; also called antibody N
Ab conc. tested but not effective at blocking Ca2+-flux (human neutrophils, 1 nM C5a) [5]: 0.01 µg/mL
EC50 [6]: 20 nM to 25 nM (2×) and ~3 µg/mL
Kd [6]: 20 nM to 25 nM (2×) and ~3 µg/mL
EC50 [1]: 0.65 nM
EC50 [3]: 1.03 nM
